Source: US20190330332A1, “Hypothermia Ameliorating Agent” (Kao Corporation, priority 2016, published 2019)
Ends that are not written are not given here.

How the values were obtained:
[1] = tested on: leptin receptor deficient C57BLKS/J male mice (db/db mice); experiment: Chronic decrease in body temperature by GIP and suppression by anti-GIP antibody; format: in vivo, mouse; conditions: intraperitoneal every morning for 28 days, measured 1 to 2 hours after administration
Method: (§1) Six-week-old leptin receptor deficient C57BLKS/J male mice (db/db mice, Oriental Yeast Co., Ltd.) were transferred (room temperature: 23° C., humidity: 55±10%, light period: 7:00 to 19:00) and were fed with food and water ad libitum. The food was CE-2 (CLEA Japan, Inc.), and the mice were acclimated for 2 weeks under the above-mentioned environment and were then used for testing.
Mouse-derived GIP (manufactured by AnaSpec, Inc.) was dissolved in physiological saline at a concentration of 500 nM to give a GIP solution. Mouse-derived GIP (manufactured by AnaSpec, Inc.) and the anti-active GIP antibody produced in Production Example 1 were dissolved in physiological saline at concentrations of 500 nM and 0.1 mg/mL, respectively, and the resulting solution was incubated for 1 to 2 hours at room temperature to give a GIP-binding anti-GIP antibody solution.
Physiological saline (control group), the GIP solution (5 nmol/kg body weight) (GIP administration group), or the GIP-binding anti-GIP antibody solution (GIP: 5 nmol/kg body weight, anti-GIP antibody: 1 mg/kg body weight) (GIP+anti-GIP antibody administration group) was intraperitoneally administered to mice (8-week-old) every morning (9:00 to 10:00 a.m.). […]
(§2) The rectal temperature was measured with a digital rectal thermometer (NS-TC10, manufactured by NeuroScience, Inc.). […]

[2] = tested on: C57BLKS/J misty male mice (m/m mice); experiment: Acute decrease in body temperature (rectal temperature) by GIP; format: in vivo, mouse; conditions: 5 nmol/kg body weight intraperitoneal, 8-week-old m/m mice
Method: as §1, with “Six-week-old” for “Six-week-old leptin receptor deficient”, “C57BLKS/J misty” for “C57BLKS/J”, “(m/m” for “(db/db”
Mouse-derived GIP (manufactured by AnaSpec, Inc.) was dissolved in physiological saline at a concentration of 500 nM to give a GIP solution.
Physiological saline (control group) or the GIP solution (5 nmol/kg body weight) (GIP administration group) was intraperitoneally administered to mice (8-week-old) in the light period (9:00 to 10:00 a.m.). Before the administration and 0.5, 2, 4.5, and 8 hours after the administration, a probe was inserted into the rectum of each mouse to measure the body temperature (rectal temperature).
The rectal temperature was measured with a digital rectal thermometer (NS-TC10, manufactured by NeuroScience, Inc.). According to Jikken Dobutsu Handobukku (Handbook of Experimental Animals) (Yokendo CO. Ltd., published in 1983), each mouse was retained under no anesthesia, and the tip of a probe (RET-3 (19×0.7 mm shaft diameter), manufactured by Physitemp instruments, LLC) was then inserted into the rectum of the mouse by 0.5 to 1 cm to measure for 15 to 30 seconds. […]

[3] = tested on: C57BL/6J male mice fed high fat diet; experiment: Suppression of decrease in body temperature in mouse continuously taking in high fat diet; format: in vivo; conditions: in high fat diet for 26 weeks, measured at 34-week-old, compared to high fat diet control group
Method: Seven-week-old C57BL/6J male mice (CLEA Japan, Inc.) were transferred (room temperature: 23° C., humidity: 55±10%, light period: 7:00 to 19:00) and were fed with food and water ad libitum. The mice were acclimated using CE-2 (CLEA Japan, Inc.) as food for 1 week and were then grouped such that the body weights of each group were equivalent to each other and were fed with a normal diet containing 5% lipid (normal diet group), high fat diet containing 30% lipid (triacylglycerol) (high fat diet group), high fat diet containing 0.4% 4-hydroxybenzoic acid (2-bromobenzylidene) hydrazide (4H2BH, produced by the method described in Ling, et al., J. Med. Chem. 44: 3141-9, 2001) (4H2BH addition group), or high fat diet containing diacylglycerol (JP-A-2006-342084) instead of 30% triacylglycerol (DAG substitution group) for 26 weeks (34-week-old). During the breeding period, the body weight was measured once a week, and the food intake amount was measured twice a week. During the breeding period, the intake of the food and water was free. A probe was inserted into the rectum of each mouse at 34-week-old to measure the body temperature (rectal temperature).
as §2

[4] = target: T1, PEGylated N-terminus 15 amino acids of active GIP (GIP(1-15)) (also: PEGylated, site not given here); experiment: ELISA on immobilized antigen, hybridoma culture supernatant
T1 construct: Immobilized for the ELISA; also called antigen (1) for measurement; PEGylated GIP(1-15)
T1 peptide: YAEGTFISDYSIAMD
Method: (§3) The reaction between the hybridoma culture supernatant and the antigen (1) and (2) for measurement was evaluated by ELISA using immobilized antigen (1) and (2), and hybridomas that are positive for the antigen (1) and negative for the antigen (2) were selected as anti-active GIP monoclonal antibody-producing hybridomas.

[5] = target: T2, PEGylated N-terminus 13 amino acids of inactive GIP (GIP(3-15)) (also: PEGylated, site not given here); experiment: as above
T2 construct: Immobilized for the ELISA; also called antigen (2) for measurement; PEGylated GIP(3-15)
T2 peptide: EGTFISDYSIAMD
Method: as §3

GIP(1-42) = target: T3, GIP(1-42) (Homo sapiens, UniProt P09681); experiment: Reactivity with active GIP by sandwich ELISA; format: binding; conditions: biotinylated antibody 1 μg/mL as detection antibody, GIP 8.2 to 2000 pg/mL
T3 sequence (P09681 52-93): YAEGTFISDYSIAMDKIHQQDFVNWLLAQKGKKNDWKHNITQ
Method: (§4) The reactivity between the monoclonal antibody prepared in Production Example 1 and active GIP was confirmed by ELISA. The amino group of the anti-active GIP monoclonal antibody was biotinylated with NH2 group biotinylation kit (manufactured by Dojindo Laboratories). ELISA was performed using the produced biotinylated anti-active GIP monoclonal antibody at 1 μg/mL instead of a detection antibody, GIP detection antibody (biotinylated anti-total GIP monoclonal antibody), included in Human (total) GIP ELISA kit (manufactured by EMD Millipore Corporation). A […] dilution series of GIP(1-42) or GIP(3-42) was prepared in 6 steps (8.2 to 2000 pg/mL) with a 2000 pg/mL solution as the highest concentration. By using an anti-total GIP monoclonal antibody (included in Human GIP (total) ELISA kit manufactured by EMD Millipore Corporation) as a capture antibody, the biotinylated anti-active GIP monoclonal antibody as a detection antibody, and a peroxidase-streptavidin conjugate for detection, sandwich ELISA was conducted to prepare a calibration curve with GIP concentration on the X-axis and 450 nm-590 nm absorbance on the Y-axis (FIG. 1).

GIP(3-42) (inactive GIP) = target: T4, GIP(3-42) (inactive GIP); experiment: sandwich ELISA; anti-total GIP monoclonal antibody as capture, biotinylated anti-active GIP antibody at 1 ug/mL as detector
T4 peptide: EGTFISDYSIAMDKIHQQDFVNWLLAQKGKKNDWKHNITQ
Method: as §4, with “NH₂” for “NH2”

GIP(3-42) = target: T5, GIP(3-42) (Homo sapiens, UniProt P09681); experiment: Cross-reactivity with inactive GIP by sandwich ELISA; format: binding; conditions: biotinylated antibody 1 μg/mL as detection antibody, GIP 8.2 to 2000 pg/mL
T5 sequence (P09681 54-93): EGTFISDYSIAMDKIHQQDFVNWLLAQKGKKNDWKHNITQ
Method: as §4

[6] = tested on: C57BL/6J male mice (107-week-old); experiment: Suppression of decrease in body temperature by anti-GIP antibody in aged mouse; format: in vivo; conditions: aged C57BL/6J mice, 0.5 mg/kg intraperitoneal once a week for 8 weeks
Method: Four-week-old C57BL/6J male mice (CLEA Japan, Inc.) were transferred (room temperature: 23° C., humidity: 55±10%, light period: 7:00 to 19:00) and were fed with food (D12450K, Research Diets, Inc.) and water ad libitum for 111 weeks.
The anti-active GIP antibody produced in Production Example 1 was dissolved in physiological saline at a concentration of 0.05 mg/mL to give an anti-GIP antibody solution.
Physiological saline (control group) or the anti-GIP antibody solution (0.5 mg/kg body weight) (anti-GIP antibody administration group) was intraperitoneally administered to C57BL/6J mice (107-week-old) once a week (9:00 to 10:00 a.m.). The administration period was 8 weeks, and the probe was inserted into the rectum of each mouse chronologically (at 2 to 4 weeks intervals) to measure the body temperature (rectal temperature).
The rectal temperature was measured with a digital rectal thermometer (NS-TC10, manufactured by NeuroScience, Inc.). According to Jikken Dobutsu Handobukku (Handbook of Experimental Animals) (Yokendo CO. Ltd., published in 1983), each mouse was retained under no anesthesia, and the tip of a probe (RET-3 (19×0.7 mm shaft diameter), manufactured by Physitemp instruments, LLC) was then inserted into the rectum of the mouse by 0.5 to 1 cm to measure for 15 to 30 seconds.
The analysis results were shown as the average value (Ave.)±standard error (SE). […]

“GIP: Mouse-derived GIP (gastric inhibitory polypeptide, manufactured by AnaSpec, Inc.) dissolved in physiological saline at 500 nM (YAEGTFISDYSIAMDKIRQQDFVNWLLAQRGKKSDWKHNITQ)” was tested, and the “chronic change in body temperature (rectal) compared to the control group” value [1] was “chronic decrease in the body temperature was observed”, the “decrease in the body temperature (rectal) compared to the control group” value ([2]; after 2 hours) was 0.83 °C and the “decrease in the body temperature (rectal) compared to the control group” value ([2]; after 4.5 hours) was 0.81 °C.

With `O=C(NN=Cc1ccccc1Br)c1ccc(O)cc1` [4H2BH, 4-hydroxybenzoic acid (2-bromobenzylidene) hydrazide] the “decrease in body temperature (rectal) due to high fat diet intake” value [3] was “suppressed”.

B1: anti-active GIP monoclonal antibody produced by hybridoma 9B9H5-B9 line (Production Example 1) (antibody, V domains shown)
VH: QVQLQQPGAELVKPGASVKLSCKASGYTFTSFWMHWVIQRPGQGLEWIGEMNPSDGRTHFNEKFKTKATLTIDTSSNTAYMELNSLTSEDSAVYYCARRMEDWGQGTLVTVSA
VL: DIKMTQSPSSMYASLGERVTITCKASQDINSYLGWFQQKPGKSPKTLIYGANRLVDGVPSRFSGSGSGQDYSLTISSLEYDDMGIYYCLQYDEFPLTFGAGTKLELKR
notes: in the screening and cloning ELISA it was hybridoma culture supernatant; also called anti-active GIP antibody
In the case of B1, the binding result [4] is reported as “binds”, the binding result [5] is reported as “no binding” and the “reactivity with GIP(1-42) (450 nm-590 nm absorbance)” value (GIP(1-42)) is reported as “capable of specifically detecting GIP(1-42)”. For the same molecule, the binding result (GIP(3-42) (inactive GIP)) was “no binding (tested: 2000 pg/mL (highest GIP concentration))”, the “cross-reactivity with GIP(3-42) (450 nm-590 nm absorbance)” value (GIP(3-42)) was “does not show cross-reactivity with GIP(3-42)” and the “body temperature (rectal) compared to the control group and the non-administration group” value [6] was “significantly high”. The “decrease in the body temperature with aging” value [6] was “suppression of a decrease in the body temperature with aging was observed”.
